Measurements as given in US20240084041A1.

Target: MET on NCI-H596 cells (MET exon14 skip mutation) (human) (UniProt P08581)
Experiment: cell-based or functional assay

Relative Cell Growth (n = 3), NCI-H596 in soft agar, 100 ng/mL, two weeks (relative to control (no treatment)): 7.88
Substance: hepatocyte growth factor (HGF) (from UniProt P14210 32-728) (ligand)
